Results from paper PMC4641155 (Molecular Imaging and Biology, 2015).
Values joined by “and” are separate entries in the source; they are usually repeats but may differ in a detail not shown here. Equal entries are not always repeated.

Tests used:
[1] = Projected human organ absorbed doses and effective dose (OLINDA/EXM); assay type: in vivo, human (extrapolated from mouse); conditions: OLINDA/EXM v1.1, adult male model, 2-h voiding, from mouse data
Excerpt: (§1) Volumes of interest (VOIs) were manually drawn on the μSPECT-CT images using PMOD v3.3 (PMOD Technologies, Switzerland) to delineate the regions with distinct SPECT time-activity pattern: heart, liver, kidney, and urinary bladder, as well as whole-body. The average organ activity per volume was obtained from the co-registered μSPECT images and the non-decay corrected time activity curves (TACs) were extracted for each target organ. In order to relate the scanner units (counts/pixel) to radioactivity concentration (kilobecquerel per cubic centimeter), a scanner calibration factor was estimated by scanning a syringe with a known concentration of Tc-99m. TACs for each organ, as well as the TACs representing the activity in the remainder of the body, were fitted by a single exponential decaying function, which was then integrated to obtain the total number of disintegrations (residence time) within these regions. In order to predict human dosimetry using animal data, interspecies extrapolation is necessary. Thus, the residence times (R) were scaled to human values according to the following formula [21]: R/gorganmouse⋅kgTBweightmouse⋅gorgan/kgTBweighthuman=Rhuman
(§2) The human organ and body weight values from the standard adult male phantom taken into account are implemented in the internal dosimetry software (OLINDA/EXM v1.1) and are assumed to be constant across individuals. The body weight and organ masses for the individual mice were obtained post-mortem. For the bladder model, the fraction leaving the body via the urinary excretion system (f) and the biological half-life of the excretion (t1/2) were estimated by fitting a first-order linear system to the sum of activity in the bladder and the activity that had been excreted (calculated as total injected activity minus total body activity): y=f1−expln2/t1/2t
Projected human absorbed doses to various organs and the effective doses (ED) were then computed using the aforementioned dosimetry software (weighting factors from International Commission on Radiological Protection 60), with the human residence times as input, using the standard adult male model and the dynamic voiding bladder model (2-h voiding interval).

[2] = In vivo plasma metabolite analysis by radio-HPLC; set-up: species or system CD1−/− nude mice; conditions: mouse plasma 4 and 24 h p.i., 37 MBq purified tracer i.v., acetonitrile deproteination, radio-RP-HPLC with γ-counted fractions; n = 3 per time point
Protocol: In vivo metabolite analysis
Four and 24 h p.i. (n=3 for each […]
time point) mixed blood was drawn by cardiac puncture, and the mice were euthanized by cervical dislocation. The blood was collected in EDTA-coated tubes and the plasma fraction was obtained by centrifugation (4000 g for 7 min). The plasma (200 µl) was mixed with an equal amount of cold acetonitrile to enable sample deproteination and counted for radioactivity using an automatic γ-counter. After vortexing and centrifuging for 4 min at 4000 g, the supernatant was separated from the pellet and both fractions were γ-counted to calculate the amount of radioactivity extracted in acetonitrile. To study radiometabolite formation, 100 µl of the supernatant were analyzed by RP-HPLC using the method described before. Eluate fractions of 0.5 min were collected and counted for radioactivity in the γ-counter.
Adult normal CD1-/- nude mice were used to examine the metabolic stability of […]
According to the radio-HPLC analysis of the plasma samples, the majority of the injected radiotracer remains unchanged after 4 and 24 h p.i. (Figs. 1b and c, respectively).
One minor polar impurity was detected eluting at 3 min. As it was also visible in the reference […]
Radiometabolites eluting with a longer retention time (18.5 – 30 min) could also be detected.

[3] = Bladder model fit of urinary excretion; assay type: in vivo, CD1−/− nude female mice; conditions: first-order fit of bladder plus excreted activity
Excerpt: as §2

COLO205 tumors [4] = assay: In vivo tumor uptake by μSPECT-CT in COLO205 tumor-bearing mice; set-up: species or system nude mice; conditions: for mean tumor uptake: μSPECT 4 h p.i., 37 MBq i.v., mean ± SEM, n = 6 tumors
Protocol: (§3) Irinotecan was administered by intra-peritoneal (i.p.) injection (80 mg/kg) three times in 1 week every other day (n = 3).

[5] = Human residence time estimates scaled from mouse μSPECT time-activity curves; assay type: in vivo, human (extrapolated from mouse); conditions: scaled from mouse μSPECT TACs, n = 3 non-purified, n = 6 purified
Excerpt: as §1, §2

COLO205 tumors [6] = assay: Ex vivo tumor uptake by γ-counting in COLO205 tumor-bearing mice; set-up: species or system nude mice; conditions: mean ± SEM
Protocol: as §3

Compound: CC(C)[C@@H]1NC(=O)[C@H](Cc2ccccc2)NC(=O)[C@@H]2NC(=O)[C@H](Cc3ccccc3)NC(=O)[C@@H]3CCCN3C(=O)CNC(=O)[C@H](Cc3ccccc3)NC(=O)[C@@H]3CNCCCC[C@@H](C(=O)O)NC(=O)[C@@H]4NC(=O)[C@H](CC(N)=O)NC(=O)CNC(=O)[C@H]([C@@H](O)C(=O)O)NC(=O)[C@H](CSC[C@@H](NC(=O)[C@H](CCC(N)=O)NC(=O)[C@H](CCCCNC(=O)c5ccc(NN)nc5)NC(=O)[C@@H](N)CS[C@H]4C)C(=O)N[C@@H](CS[C@H]2C)C(=O)N3)NC1=O [purified [^99mTc]duramycin] [metal not drawn]
- Mean human absorbed dose, total body [1]: 1.62 × 10^−3 mGy/MBq
- Mean human organ absorbed dose, LLI wall [1]: 2.97 × 10^−3 mGy/MBq
- Mean human organ absorbed dose, ULI wall [1]: 2.03 × 10^−3 mGy/MBq
- Mean human organ absorbed dose, adrenals [1]: 1.74 × 10^−3 mGy/MBq
- Mean human organ absorbed dose, brain [1]: 1.14 × 10^−3 mGy/MBq
- Mean human organ absorbed dose, breasts [1]: 9.59 × 10^−4 mGy/MBq
- Mean human organ absorbed dose, gallbladder wall [1]: 1.84 × 10^−3 mGy/MBq
- Mean human organ absorbed dose, heart wall [1]: 1.91 × 10^−3 mGy/MBq
- Mean human organ absorbed dose, kidneys [1]: 3.63 × 10^−3 mGy/MBq
- Mean human organ absorbed dose, liver [1]: 1.64 × 10^−3 mGy/MBq
- Mean human organ absorbed dose, lungs [1]: 1.36 × 10^−3 mGy/MBq
- Mean human organ absorbed dose, muscle [1]: 1.55 × 10^−3 mGy/MBq
- Mean human organ absorbed dose, osteogenic cells [1]: 3.92 × 10^−3 mGy/MBq
- Mean human organ absorbed dose, ovaries [1]: 2.96 × 10^−3 mGy/MBq
- Mean human organ absorbed dose, pancreas [1]: 1.82 × 10^−3 mGy/MBq
- Mean human organ absorbed dose, red marrow [1]: 1.48 × 10^−3 mGy/MBq
- Mean human organ absorbed dose, skin [1]: 9.56 × 10^−4 mGy/MBq
- Mean human organ absorbed dose, small intestine [1]: 2.22 × 10^−3 mGy/MBq
- Mean human organ absorbed dose, spleen [1]: 1.59 × 10^−3 mGy/MBq
- Mean human organ absorbed dose, stomach wall [1]: 1.59 × 10^−3 mGy/MBq
- Mean human organ absorbed dose, testes [1]: 2.07 × 10^−3 mGy/MBq
- Mean human organ absorbed dose, thymus [1]: 1.39 × 10^−3 mGy/MBq
- Mean human organ absorbed dose, thyroid [1]: 1.38 × 10^−3 mGy/MBq
- Mean human organ absorbed dose, urinary bladder wall [1]: 2.70 × 10^−2 ± 3.05 × 10^−3 mGy/MBq and 2.70 × 10 ^−2 mGy/MBq
- Mean human organ absorbed dose, uterus [1]: 4.57 × 10^−3 ± 3.42 × 10^−4 mGy/MBq and 4.57 × 10 ^−3 mGy/MBq
- in vivo plasma (metabolic) stability [2]: unchanged
- f, mean fraction leaving the body via the urinary excretion system [3]: 0.697
- t 1/2, mean biological half-life of the excretion [3]: 2.151 h
- tumor-to-blood uptake ratio, irinotecan-treated over vehicle-treated mice (COLO205 tumors [4]; 4 h p.i.): 6 fold
- tumor-to-muscle uptake ratio, irinotecan-treated over vehicle-treated mice (COLO205 tumors [4]; 4 h p.i.): 2 fold
- mean tumor uptake (COLO205 tumors [4]; irinotecan-treated group, 24 h after last dose): 148.50 ± 25.42 %I.D./g/kg
- mean tumor uptake (COLO205 tumors [4]; vehicle-treated group): 40.58 ± 2.81 %I.D./g/kg
- Mean human residence time, heart contents [5]: 0.027 h
- Mean human residence time, kidneys [5]: 0.0549 h
- Mean human residence time, liver [5]: 0.075 h
- Mean human residence time, remaining body [5]: 2.54 h
- Mean human residence time, urinary bladder contents [5]: 6.43 × 10 ^−1 h
- tumor uptake by γ-counting (COLO205 tumors [6]; control (vehicle) tumors): 0.74 ± 0.04 %I.D./g
- tumor uptake by γ-counting (COLO205 tumors [6]; irinotecan-treated tumors): 1.65 ± 0.13 %I.D./g
